The text below walks through data of article PMC8463545.

What all share (test): SPR
Conditions in all cases: EMSA: 10 mM Tris-HCl pH 7.5, 50 mM KCl, 1 mM DTT, 0.4% glycerol, 20 uL, 28 C, 25-30 min; 5% native gel, 0.5x TBE, 4 C; SPR conditions not given

For data set [1], the system named is HtsH1C-Flag-His (Lysobacter enzymogenes OH11).
Data set [2] has as its system HtsH3C-Myc-His (Lysobacter enzymogenes OH11).
The test system of data set [3] is HtsH2C-HA-His (Lysobacter enzymogenes OH11).

For the substance plafB (SPR), the Kd in data set [1] was 536 nM; in data set [2], 249 nM; in data set [3], 1380 nM.
